Measured values: the Human Domainome abundance scans (Beltran et al. 2025)
± gives the uncertainty stated by the source.

B1: Pyruvate dehydrogenase protein X component, mitochondrial, residues 181 to 227; numbered along this chain, O00330 (parent)
chain: RFRLSPAARNILEKHSLDASQGTATGPRGIFTKEDALKLVQLKQTGK

Variants of: B1
Assay: abundance fitness (aPCA) (normalised: wild type 0, dead -1); higher = more abundant; growth selection in yeast, the domain comes from the species named
Conditions: Homo sapiens

Variant | abundance fitness
RFRLSPAARNILEKHSLDAPQGTATGPRGIFTKEDALKLVQLKQTGK | -0.257 ± 0.061
RFRLSPAARNILEKHSLDAQQGTATGPRGIFTKEDALKLVQLKQTGK | -0.242 ± 0.067
RFRLSPAARNILEKHSLDARQGTATGPRGIFTKEDALKLVQLKQTGK | -0.284 ± 0.047
RFRLSPAARNILEKHSLDATQGTATGPRGIFTKEDALKLVQLKQTGK | -0.109 ± 0.051
RFRLSPAARNILEKHSLDAVQGTATGPRGIFTKEDALKLVQLKQTGK | -0.369 ± 0.043
RFRLSPAARNILEKHSLDAWQGTATGPRGIFTKEDALKLVQLKQTGK | -0.788 ± 0.075
RFRLSPAARNILEKHSLDAYQGTATGPRGIFTKEDALKLVQLKQTGK | -0.932 ± 0.18
RFRLSPAARNILEKHSLDASCGTATGPRGIFTKEDALKLVQLKQTGK | -0.167 ± 0.059
RFRLSPAARNILEKHSLDASDGTATGPRGIFTKEDALKLVQLKQTGK | -0.194 ± 0.068
RFRLSPAARNILEKHSLDASEGTATGPRGIFTKEDALKLVQLKQTGK | 0.041 ± 0.068
RFRLSPAARNILEKHSLDASFGTATGPRGIFTKEDALKLVQLKQTGK | -0.493 ± 0.085
RFRLSPAARNILEKHSLDASGGTATGPRGIFTKEDALKLVQLKQTGK | -0.101 ± 0.048
RFRLSPAARNILEKHSLDASKGTATGPRGIFTKEDALKLVQLKQTGK | -0.339 ± 0.045
RFRLSPAARNILEKHSLDASLGTATGPRGIFTKEDALKLVQLKQTGK | -0.051 ± 0.046
RFRLSPAARNILEKHSLDASMGTATGPRGIFTKEDALKLVQLKQTGK | -0.084 ± 0.051
RFRLSPAARNILEKHSLDASNGTATGPRGIFTKEDALKLVQLKQTGK | -0.516 ± 0.056
RFRLSPAARNILEKHSLDASPGTATGPRGIFTKEDALKLVQLKQTGK | -0.453 ± 0.06
RFRLSPAARNILEKHSLDASRGTATGPRGIFTKEDALKLVQLKQTGK | -0.44 ± 0.058
RFRLSPAARNILEKHSLDASSGTATGPRGIFTKEDALKLVQLKQTGK | -0.158 ± 0.058
RFRLSPAARNILEKHSLDASTGTATGPRGIFTKEDALKLVQLKQTGK | -0.427 ± 0.074
RFRLSPAARNILEKHSLDASVGTATGPRGIFTKEDALKLVQLKQTGK | -0.31 ± 0.049
RFRLSPAARNILEKHSLDASWGTATGPRGIFTKEDALKLVQLKQTGK | -0.223 ± 0.056
RFRLSPAARNILEKHSLDASYGTATGPRGIFTKEDALKLVQLKQTGK | -0.481 ± 0.14
RFRLSPAARNILEKHSLDASQATATGPRGIFTKEDALKLVQLKQTGK | -0.337 ± 0.067
RFRLSPAARNILEKHSLDASQCTATGPRGIFTKEDALKLVQLKQTGK | -0.419 ± 0.081
RFRLSPAARNILEKHSLDASQDTATGPRGIFTKEDALKLVQLKQTGK | -0.552 ± 0.097
RFRLSPAARNILEKHSLDASQETATGPRGIFTKEDALKLVQLKQTGK | -0.43 ± 0.078
RFRLSPAARNILEKHSLDASQFTATGPRGIFTKEDALKLVQLKQTGK | -0.679 ± 0.053

Variant | abundance fitness
RFRLSPAARNILEKHSLDASQHTATGPRGIFTKEDALKLVQLKQTGK | -0.524 ± 0.11
RFRLSPAARNILEKHSLDASQITATGPRGIFTKEDALKLVQLKQTGK | -0.446 ± 0.058
RFRLSPAARNILEKHSLDASQKTATGPRGIFTKEDALKLVQLKQTGK | -0.633 ± 0.099
RFRLSPAARNILEKHSLDASQLTATGPRGIFTKEDALKLVQLKQTGK | -0.475 ± 0.047
RFRLSPAARNILEKHSLDASQMTATGPRGIFTKEDALKLVQLKQTGK | -0.369 ± 0.051
RFRLSPAARNILEKHSLDASQNTATGPRGIFTKEDALKLVQLKQTGK | -0.648 ± 0.078
RFRLSPAARNILEKHSLDASQPTATGPRGIFTKEDALKLVQLKQTGK | -0.64 ± 0.071
RFRLSPAARNILEKHSLDASQQTATGPRGIFTKEDALKLVQLKQTGK | -0.479 ± 0.048
RFRLSPAARNILEKHSLDASQRTATGPRGIFTKEDALKLVQLKQTGK | -0.723 ± 0.07
RFRLSPAARNILEKHSLDASQSTATGPRGIFTKEDALKLVQLKQTGK | -0.619 ± 0.066
RFRLSPAARNILEKHSLDASQTTATGPRGIFTKEDALKLVQLKQTGK | -0.554 ± 0.065
RFRLSPAARNILEKHSLDASQVTATGPRGIFTKEDALKLVQLKQTGK | -0.378 ± 0.06
RFRLSPAARNILEKHSLDASQWTATGPRGIFTKEDALKLVQLKQTGK | -0.712 ± 0.074
RFRLSPAARNILEKHSLDASQYTATGPRGIFTKEDALKLVQLKQTGK | -0.623 ± 0.08
RFRLSPAARNILEKHSLDASQGCATGPRGIFTKEDALKLVQLKQTGK | -0.234 ± 0.056
RFRLSPAARNILEKHSLDASQGDATGPRGIFTKEDALKLVQLKQTGK | -0.058 ± 0.079
RFRLSPAARNILEKHSLDASQGEATGPRGIFTKEDALKLVQLKQTGK | 0.067 ± 0.055
RFRLSPAARNILEKHSLDASQGFATGPRGIFTKEDALKLVQLKQTGK | -0.36 ± 0.072
RFRLSPAARNILEKHSLDASQGGATGPRGIFTKEDALKLVQLKQTGK | -0.326 ± 0.045
RFRLSPAARNILEKHSLDASQGHATGPRGIFTKEDALKLVQLKQTGK | -0.326 ± 0.087
RFRLSPAARNILEKHSLDASQGIATGPRGIFTKEDALKLVQLKQTGK | -0.074 ± 0.089
RFRLSPAARNILEKHSLDASQGKATGPRGIFTKEDALKLVQLKQTGK | -0.062 ± 0.075
RFRLSPAARNILEKHSLDASQGLATGPRGIFTKEDALKLVQLKQTGK | -0.258 ± 0.06
RFRLSPAARNILEKHSLDASQGMATGPRGIFTKEDALKLVQLKQTGK | -0.231 ± 0.054
RFRLSPAARNILEKHSLDASQGNATGPRGIFTKEDALKLVQLKQTGK | -0.195 ± 0.066
RFRLSPAARNILEKHSLDASQGPATGPRGIFTKEDALKLVQLKQTGK | -0.442 ± 0.064
RFRLSPAARNILEKHSLDASQGQATGPRGIFTKEDALKLVQLKQTGK | -0.24 ± 0.087
